Reference: PMC3760798, “Analysis of the RelA:CBP/p300 Interaction Reveals Its Involvement in NF-κB-Driven Transcription” (PLoS Biology, 2013)
Values belong to the binder of their own block, whether it stands above or below them.

B4: TAZ1 domain of mouse CBP (residues 340–439) (domain or fragment)
chain: not shown
notes: Isotopically labelled in some NMR samples; also called CBP–TAZ1; CH1; source: purified
B5: GB1-tagged RelA–TA2 fragment 425–508 wt (domain or fragment, mouse, UniProt Q04207 425-508, looked up)
chain: KSTQAGEGTLSEALLHLQFDADEDLGALLGNSTDPGVFTDLASVDNSEFQQLLNQGVSMSHSTAEPMLMEYPEAITRLVTGSQR
notes: GB1 is the 58-residue B1 domain of streptococcal protein G, kept for concentration determination; also called RelA–TA2 fragment of Lys425–Arg508; source: expressed as His6-GB1 fusion, purified; His6-tag cleaved by TEV protease; not shown: His6, N-terminal, cleaved; GB1, N-terminal, kept
B6: GB1-tagged RelA–TA2 fragment 425–508 (L449A) (domain or fragment, mouse, UniProt Q04207 425-508, looked up)
chain: KSTQAGEGTLSEALLHLQFDADEDAGALLGNSTDPGVFTDLASVDNSEFQQLLNQGVSMSHSTAEPMLMEYPEAITRLVTGSQR
notes: also called Leu449Ala; source: expressed as His6-GB1 fusion, purified; His6-tag cleaved by TEV protease; not shown: His6, N-terminal, cleaved; GB1, N-terminal, kept
B7: GB1-tagged RelA–TA2 fragment 425–508 (S467D) (domain or fragment, mouse, UniProt Q04207 425-508, looked up)
chain: KSTQAGEGTLSEALLHLQFDADEDLGALLGNSTDPGVFTDLADVDNSEFQQLLNQGVSMSHSTAEPMLMEYPEAITRLVTGSQR
notes: also called RelA(Ser467Asp); phosphomimetic mutant; source: expressed as His6-GB1 fusion, purified; His6-tag cleaved by TEV protease; not shown: His6, N-terminal, cleaved; GB1, N-terminal, kept
B8: GB1-tagged RelA–TA2 fragment 425–508 (L465A) (domain or fragment, mouse, UniProt Q04207 425-508, looked up)
chain: KSTQAGEGTLSEALLHLQFDADEDLGALLGNSTDPGVFTDAASVDNSEFQQLLNQGVSMSHSTAEPMLMEYPEAITRLVTGSQR
notes: also called Leu465Ala; source: expressed as His6-GB1 fusion, purified; His6-tag cleaved by TEV protease; not shown: His6, N-terminal, cleaved; GB1, N-terminal, kept
B9: GB1-tagged RelA fragment 441–508 wt (domain or fragment, mouse, UniProt Q04207 441-508, looked up)
chain: LQFDADEDLGALLGNSTDPGVFTDLASVDNSEFQQLLNQGVSMSHSTAEPMLMEYPEAITRLVTGSQR
notes: RelA (p65), mouse, residues 441-508; also called N-terminal truncation to remove residues Lys425–His440; source: expressed as His6-GB1 fusion, purified; His6-tag cleaved by TEV protease; not shown: His6, N-terminal, cleaved; GB1, N-terminal, kept

Experiments:
Details in all cases: both partners purified
[1] = target: B4; test: pull-down; GST-RelA fragments (20 µg) on glutathione sepharose beads with purified TAZ1 (10 µg); 20 mM Tris pH 7.5, 150 mM NaCl, 0.5 mM DTT; 4°C, 30 min; washes with 0.3% TritonX-100; SDS-PAGE
[2] = target: B4; test: NMR structure; solution structure of the complex; refolded TAZ1 and RelA fragment mixed; 25°C, 20 mM Tris pH 6.5, 40 mM NaCl, 2 mM DTT; 0.7–1.2 mM protein
[3] = target: B6; test: ITC; TAZ1 (169 to 185 µM) in the syringe, GB1-tagged RelA–TA2 peptide (10 to 18 µM) in the cell; 25°C; 20 mM Tris pH 8.0, 150 mM NaCl, 1 mM DTT; single-binding site model
[4] = target: B5; test: as above
[5] = target: B8; test: as above
[6] = target: B9; test: as above
[7] = target: B7; test: as above
[8] = target: B5; test: ITC; TAZ1 (169 to 185 µM) in the syringe, GB1-tagged RelA–TA2 peptide (10 to 18 µM) in the cell; 25°C; 20 mM Tris pH 8.0, 50 mM NaCl, 1 mM DTT; single-binding site model
[9] = target: B7; test: as above
[10] = target: B4; test: ITC; TAZ1 (169 to 185 µM) in the syringe, GB1-tagged RelA–TA2 peptide (10 to 18 µM) in the cell; 25°C; 20 mM Tris pH 8.0, 150 mM NaCl, 1 mM DTT; single-binding site model
[11] = target: B4; test: ITC; TAZ1 (169 to 185 µM) in the syringe, GB1-tagged RelA–TA2 peptide (10 to 18 µM) in the cell; 25°C; 20 mM Tris pH 8.0, 50 mM NaCl, 1 mM DTT; single-binding site model

binding result [1]: binds
B1: GST-RelA fragment (Lys425–Pro490) Met483Ala (domain or fragment, mouse, UniProt Q04207 425-490, looked up)
chain: KSTQAGEGTLSEALLHLQFDADEDLGALLGNSTDPGVFTDLASVDNSEFQQLLNQGVSASHSTAEP
notes: also called RelA–TA2 M483A (GST); source: E. coli BL21(DE3), purified (glutathione sepharose); not shown: GST, N-terminal, kept

binding result [2]: binds
B2: RelA–TA2 (residues 425–490), tag cleaved (domain or fragment, mouse, UniProt Q04207 425-490, looked up)
chain: KSTQAGEGTLSEALLHLQFDADEDLGALLGNSTDPGVFTDLASVDNSEFQQLLNQGVSMSHSTAEP
notes: 15N/13C labelled for NMR; source: expressed as His6-GB1 fusion, purified (Ni-NTA under denaturing conditions, thrombin cleavage, reverse-phase HPLC); not shown: His6, N-terminal, cleaved; GB1, N-terminal, cleaved

binding result [1]: binds
B3: GST-RelA fragment (Lys425–Pro490), wild type (domain or fragment, mouse, UniProt Q04207 425-490, looked up)
chain: KSTQAGEGTLSEALLHLQFDADEDLGALLGNSTDPGVFTDLASVDNSEFQQLLNQGVSMSHSTAEP
notes: also called GST-RelA–TA2; construct T11; source: E. coli BL21(DE3), purified (glutathione sepharose); not shown: GST, N-terminal, kept

Binder: B4
dH [3]: -5.4 kcal/mol
dH [4]: -7.2 kcal/mol
dH [5]: -2.4 kcal/mol
dH [6]: -8.3 kcal/mol
dH [7]: -7.8 kcal/mol
dH [8]: -5.9 kcal/mol
dH [9]: -6.5 kcal/mol

Binder: B5
Kd [10]: 244 nM
Kd [11]: 57 nM

Binder: B6
Kd [10]: 1600 nM

Binder: B7
Kd [10]: 174 nM
Kd [11]: 41.2 nM

Binder: B8
Kd [10]: 1710 nM

Binder: B9
Kd [10]: 387 nM
